Test results taken from paper PMC2139591.

Target: NGF-specific-receptor-like molecule (NSR) from C 1300 neuroblastoma cells (mouse (endogenous in C 1300 NB cells))
Assay: radioligand binding

Question: “nerve growth factor (NGF), mouse salivary glands (from UniProt P01139 122-241) (ligand)” was tested. Which Ka did it give?
Answer: 1e+07 M⁻¹
